Data taken from patent US20070128190A1 (GLENMARK PHARMACEUTICALS S A, published 2007).

T1: GST-human α2 I domain fusion protein (human, UniProt P17301 153-368)
T1 construct: the reverse primer ends at ...SIEGTV; also called GST-α2 I domain; hα2I; not shown: glutathione S-transferase tag encoded by vector pGEX-2TK
T1 sequence: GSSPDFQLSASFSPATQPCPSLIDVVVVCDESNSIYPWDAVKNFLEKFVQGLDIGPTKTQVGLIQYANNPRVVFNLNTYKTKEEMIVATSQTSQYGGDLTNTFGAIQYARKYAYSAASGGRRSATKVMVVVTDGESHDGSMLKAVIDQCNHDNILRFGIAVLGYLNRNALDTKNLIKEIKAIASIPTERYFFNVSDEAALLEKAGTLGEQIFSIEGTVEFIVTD

T2: GST-rhesus α2 I domain fusion protein (rhesus monkey, UniProt P17301 153-368 (human entry))
T2 construct: also called rhesus GST-α2 I; not shown: glutathione S-transferase tag encoded by vector pGEX-2TK
T2 sequence: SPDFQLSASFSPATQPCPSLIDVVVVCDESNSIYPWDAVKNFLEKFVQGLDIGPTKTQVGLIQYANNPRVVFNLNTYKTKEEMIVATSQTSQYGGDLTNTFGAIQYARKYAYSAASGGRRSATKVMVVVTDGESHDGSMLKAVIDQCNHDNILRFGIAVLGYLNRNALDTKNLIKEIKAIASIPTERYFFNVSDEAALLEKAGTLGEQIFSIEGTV


How the values were obtained:
BSA = target: T3, BSA (UniProt P02769 25-607); assay: Eu-labelled antibody on BSA-coated control wells
T3 construct: also called BSA coated control wells

[1] = target: T1, GST-human α2 I domain fusion protein; assay: ELISA, GST fusion protein on immobilized TMC-2206 (Kd apparent)
Method: (§1) The fusion proteins were then expressed and purified as described above for the human GST-α2 I domain fusion protein. […] Therefore, these and the primate fusion proteins were further purified by size exclusion chromatography on a Sephadex 75 10/30 (GE-Amersham) column (primate) by FPLC on an Akta-Basic FPLC system (GE-Amersham) to yield a monomeric fraction. […] The Kᵢ assays were performed as described above in Example 2. […] Plates were sealed and coating occurred overnight at 4° C. The next morning, the plates were washed twice with TBS solution and then blocked using 200 μL of the blocking solution described above for 1 hour at room temperature with shaking. After blocking, the blocking solution was removed but the wells were not washed. Instead, a serial dilution of GST fusion protein was made, added to the wells and then incubated for 2 hours at room temperature with shaking. The wells were then aspirated and a TBS washing buffer applied for 5 minutes at room temperature. The washing step was repeated twice more before the secondary antibody was applied. The secondary antibody step consisted of Amersham's HRP-conjugated rabbit anti-GST antibody diluted 1:2000 in blocking buffer. One hundred μL of secondary antibody was added to each well and incubated at room temperature for 1.5 hours with shaking. The wells were again aspirated and washed three times with wash buffer before adding the substrate reaction mixture. One hundred μL of substrate reaction mixture (1:1 dilution of TMB kit) was then added to each well for 6 minutes. The reaction was stopped by adding 100 μL of 0.1M H₂SO₄. The reaction within the wells was then read and quantified by spectrophotometric absorption using the Molecular Dynamics plate reader and associated Softmax software, respectively. Kd values were then estimated from the EC₅₀ values using Prism software (Graphpad, Calif.).

GST-hα2 I domain K78E = target: T4, GST-hα2 I domain K78E (human, UniProt P08515 1-218 = GST); assay: as above
T4 construct: same construct as m41
Method: as §1

[2] = target: T2, GST-rhesus α2 I domain fusion protein; assay: ELISA, GST fusion protein on immobilized TMC-2206, Kd estimated from EC50
Method: as §1, with “One hundred μL of secondary antibody was added to each well and incubated at room temperature for 1.5 hours with shaking. The wells were again aspirated and washed three times with wash buffer before adding the substrate reaction mixture. One hundred μL of substrate reaction mixture (1:1 dilution of TMB kit) was then added to each well for 6 minutes. The reaction was stopped by adding 100 μL of 0.1M H₂SO₄.” left out, “Kd values were then estimated from the EC₅₀ values using Prism software (Graphpad, Calif.).” left out

[3] = target: T1, GST-human α2 I domain fusion protein; assay: as above
Method: as §1, with “One hundred μL of secondary antibody was added to each well and incubated at room temperature for 1.5 hours with shaking. The wells were again aspirated and washed three times with wash buffer before adding the substrate reaction mixture. One hundred μL of substrate reaction mixture (1:1 dilution of TMB kit) was then added to each well for 6 minutes. The reaction was stopped by adding 100 μL of 0.1M H₂SO₄.” left out, “Kd values were then estimated from the EC₅₀ values using Prism software (Graphpad, Calif.).” left out

[4] = target: T1, GST-human α2 I domain fusion protein; assay: SPR (Biacore 2000), antibody captured, GST-α2 I domain in solution; second Human row; second Human row of humanized TMC-2206
Description: SPR, a method for characterizing macromolecular interactions, is an optical technique that uses the […] phenomenon to exquisitely measure minute changes in refractive index very close to a sensor surface. The binding between an antigen in solution (e.g., fusion protein) and its MAb receptor (immobilized on the surface of a sensor chip) results in a change in refractive index. The interaction is monitored in real time and the amount of bound antigen and the association and dissociation rate constants can be measured with high precision. The equilibrium dissociation constant can be easily calculated from: KD=kd/kₐ=koff/kₒₙ. The cloning of the human α2 I domain and the purification of the expressed GST-human α2 I domain fusion protein was described in Example 12. Analyses were performed at 20° C. using a Biacore 2000 optical sensor with a research-grade CM5 sensor chip (Biacore Life Sciences, Uppsala, Sweden) and equilibrated with running buffer (50 mM HEPES, 150 mM NaCl, 0.25 mM MgCl₂, 0.25 mM CaCl₂, 0.5% Tween-20, 0.1 mg/ml BSA, pH 7.4). […] Each cycle of antigen (GST-human-α2 I domain fusion protein) binding to surface-tethered anti-mouse IgGs involved three steps. […] [The other two surfaces (one anti-mouse and one Protein A) served as analytic references.] In the second step, GST-human-α2 I domain fusion protein was injected across the four surfaces. Responses obtained from the reference surfaces (due to refractive index mismatches between the antigen and running buffer) were subtracted from the responses obtained from the reaction surfaces. In the third step, the antigen/antibody complexes were stripped from the surfaces such that the surfaces could be used for another binding cycle.

GST = target: T5, GST (UniProt P08515 1-218 = GST); assay: GST competing Eu-humanized TMC-2206 off α2β1-coated plate
T5 construct: also called GST fusion protein (negative control)
T5 sequence (P08515 whole entry, the tested form may be a part): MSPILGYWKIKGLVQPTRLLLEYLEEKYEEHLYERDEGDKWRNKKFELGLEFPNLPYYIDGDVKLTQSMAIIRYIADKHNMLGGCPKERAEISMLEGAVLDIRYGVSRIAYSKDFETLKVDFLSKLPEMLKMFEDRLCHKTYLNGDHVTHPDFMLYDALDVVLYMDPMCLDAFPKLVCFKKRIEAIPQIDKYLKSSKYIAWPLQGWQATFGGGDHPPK

T3 sequence (P02769 25-607 limits assumed): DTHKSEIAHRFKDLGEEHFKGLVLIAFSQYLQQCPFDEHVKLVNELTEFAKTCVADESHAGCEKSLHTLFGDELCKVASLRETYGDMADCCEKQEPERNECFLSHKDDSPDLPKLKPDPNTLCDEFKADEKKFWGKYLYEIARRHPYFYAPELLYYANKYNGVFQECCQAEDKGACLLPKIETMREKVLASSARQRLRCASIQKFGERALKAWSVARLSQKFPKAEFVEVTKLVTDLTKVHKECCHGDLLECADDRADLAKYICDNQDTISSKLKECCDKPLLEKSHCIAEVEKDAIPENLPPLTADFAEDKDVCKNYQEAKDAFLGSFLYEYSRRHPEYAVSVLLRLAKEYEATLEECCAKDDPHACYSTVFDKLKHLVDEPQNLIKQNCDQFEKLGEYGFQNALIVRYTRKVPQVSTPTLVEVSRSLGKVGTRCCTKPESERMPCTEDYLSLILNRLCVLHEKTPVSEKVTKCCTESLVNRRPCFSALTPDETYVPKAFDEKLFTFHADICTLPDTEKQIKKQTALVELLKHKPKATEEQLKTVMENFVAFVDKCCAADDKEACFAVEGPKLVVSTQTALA

Binder	binding result (BSA)	Kd [1] [nM]	Kd (GST-hα2 I domain K78E) [nM]	Kd [2] [nM]	Kd [3] [nM]	Kd [4] [nM]	koff [4] [s⁻¹]	kon [4] [M⁻¹ s⁻¹]	binding result (GST)
TMC-2206 (antibody, mouse IgG1, V domains shown, murine IgG1/κ secreted by hybridoma BHA2.1; labelled with Eu-N1-ITC where used as tracer; also called BHA2.1) VH: QVQLKESGPGLVAPSQSLSITCTVSGFSLTNYGIHWVRQPPGKGLEWLGVIWARGFTNYNSALMSRLIITKDNSQSQVFLKMNSLQPDDSATYFCARANDGVYYAMDYWGQGTSVTVSS VL: QFVLTQSPAFLSASPGEKVTMTCSANSSVNYIHWYQQKSGTSPKKWIYDTSKLASGVPVRFSGSGSGTSYSLTISSMETEDAATYYCQQWTTNPLTFGAGTRVELK	no binding	0.31	0.16	0.04	0.18	–	–	–	–
Humanized TMC-2206 (hIgG4/κ VH12.0/VL10.0Q) (antibody, labelled with Eu or Alexa-488 in some assays) heavy: not shown light: DFVMTQSPAFLSVTPGEKVTITCSAQSSVNYIHWYQQKPDQAPKKLIYDTSKLASGVPSRFSGSGSGTDYTFTISSLEAEDAATYYCQQWTTNPLTFGQGTKVEIKRTVAAPSVFIFPPSDEQLKSGTASVVCLLNNFYPREAKVQWKVDNALQSGNSQESVTEQDSKDSTYSLSSTLTLSKADYEKHKVYACEVTHQGLSSPVTKSFNRGEC	–	–	–	–	–	4	0.0024	580000	no binding (tested: 0.4 µM)
